# Literature values as cited in paper PMC6995517.
# Biological target: transferrin receptor (TfR) (Homo sapiens) (UniProt P02786)
# Sequence (P02786 89-760): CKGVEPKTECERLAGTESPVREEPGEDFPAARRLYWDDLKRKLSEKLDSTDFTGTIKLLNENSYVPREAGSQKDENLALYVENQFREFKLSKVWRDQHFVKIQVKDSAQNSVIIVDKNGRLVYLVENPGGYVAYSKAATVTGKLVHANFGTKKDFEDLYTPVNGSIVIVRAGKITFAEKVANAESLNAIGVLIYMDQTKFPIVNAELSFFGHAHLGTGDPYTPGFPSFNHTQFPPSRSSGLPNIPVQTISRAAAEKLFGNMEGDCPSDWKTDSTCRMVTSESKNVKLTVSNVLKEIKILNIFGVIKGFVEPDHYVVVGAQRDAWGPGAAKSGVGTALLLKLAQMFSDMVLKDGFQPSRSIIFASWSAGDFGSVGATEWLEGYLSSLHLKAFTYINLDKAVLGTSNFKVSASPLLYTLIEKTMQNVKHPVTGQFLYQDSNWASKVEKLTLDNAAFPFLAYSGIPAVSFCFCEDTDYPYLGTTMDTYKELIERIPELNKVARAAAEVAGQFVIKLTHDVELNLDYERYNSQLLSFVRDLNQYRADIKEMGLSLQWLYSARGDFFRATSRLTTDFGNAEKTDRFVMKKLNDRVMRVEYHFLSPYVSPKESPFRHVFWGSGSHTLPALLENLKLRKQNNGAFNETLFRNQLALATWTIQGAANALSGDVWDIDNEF
substance,measurement,value
T7 peptide,Kd,10 nM
